In article PMC5559459, “Disruption of the structural and functional features of surfactant protein A by acrolein in cigarette smoke” (Scientific Reports, 2017):

B1: acrolein (100 µM)-modified recombinant human SP-A (natural protein)
chain: not shown
modifications: acrolein adducts; at a 20:1 molar ratio of acrolein to SP-A six modified residues were identified: His39, His116, Cys155, Lys180, Lys221, Cys224
notes: pulmonary surfactant protein A, human SP-A1 cDNA expressed and secreted by CHO-K1 cells; Chemically modified form of m1; the sites were mapped by MS on a sample of 25 µM hSP-A with 500 µM acrolein (same 20:1 ratio); also called acrolein (100 μM)-modified SP-A; hSP-A pre-incubated with 100 µM acrolein; source: CHO-K1 cells, purified (mannose-Sepharose); 5 µM hSP-A incubated with 100 µM acrolein in …
B2: acrolein (10 µM)-modified recombinant human SP-A (natural protein)
chain: not shown
modifications: acrolein adducts (acrolein-lysine adducts, aldehyde adducts, modified free thiols); the sites were not mapped at this 2:1 ratio
notes: pulmonary surfactant protein A, human SP-A1 cDNA expressed and secreted by CHO-K1 cells; Chemically modified form of m1; heterogeneous adducts; also called acrolein (10 μM)-modified SP-A; hSP-A pre-incubated with 10 µM acrolein; source: CHO-K1 cells, purified (mannose-Sepharose); 5 µM hSP-A incubated with 10 µM acrolein in 5 mM Tris-HCl pH 7.4 at 37 °C for 4 h, then dialyzed
B3: cigarette smoke extract (CSE)-modified recombinant human SP-A (natural protein)
chain: not shown
modifications: adducts from cigarette smoke extract (acrolein-lysine adducts, aldehyde adducts, modified free thiols); sites not mapped
notes: pulmonary surfactant protein A, human SP-A1 cDNA expressed and secreted by CHO-K1 cells; Chemically modified form of m1; heterogeneous adducts; also called CSE-modified SP-A; hSP-A pre-incubated with CSE; source: CHO-K1 cells, purified (mannose-Sepharose); 5 µM hSP-A incubated with 10% CSE in 5 mM Tris-HCl pH 7.4 at 37 °C for 4 h, then dialyzed

Biological target: T1, recombinant human TLR4 (hTLR4) (human, UniProt O00206 24-631)
T1 construct: Toll-like receptor 4, human, recombinant; No catalogue number is printed; the bought protein is probably a soluble extracellular construct with a tag (surmise); source: bought: Sino Biological Inc
Test: ELISA; 500 ng hTLR4 coated on 96-well plates; 5 μg SP-A in 10 mM HEPES pH 7.4, 0.15 M NaCl, 5 mM CaCl2, 2% fatty acid-free BSA, 37 °C, 5 h; detected with anti-human SP-A polyclonal antibody and HRP anti-rabbit IgG; background (vehicle) subtracted
Conditions: both partners purified

T1 sequence (O00206 24-631): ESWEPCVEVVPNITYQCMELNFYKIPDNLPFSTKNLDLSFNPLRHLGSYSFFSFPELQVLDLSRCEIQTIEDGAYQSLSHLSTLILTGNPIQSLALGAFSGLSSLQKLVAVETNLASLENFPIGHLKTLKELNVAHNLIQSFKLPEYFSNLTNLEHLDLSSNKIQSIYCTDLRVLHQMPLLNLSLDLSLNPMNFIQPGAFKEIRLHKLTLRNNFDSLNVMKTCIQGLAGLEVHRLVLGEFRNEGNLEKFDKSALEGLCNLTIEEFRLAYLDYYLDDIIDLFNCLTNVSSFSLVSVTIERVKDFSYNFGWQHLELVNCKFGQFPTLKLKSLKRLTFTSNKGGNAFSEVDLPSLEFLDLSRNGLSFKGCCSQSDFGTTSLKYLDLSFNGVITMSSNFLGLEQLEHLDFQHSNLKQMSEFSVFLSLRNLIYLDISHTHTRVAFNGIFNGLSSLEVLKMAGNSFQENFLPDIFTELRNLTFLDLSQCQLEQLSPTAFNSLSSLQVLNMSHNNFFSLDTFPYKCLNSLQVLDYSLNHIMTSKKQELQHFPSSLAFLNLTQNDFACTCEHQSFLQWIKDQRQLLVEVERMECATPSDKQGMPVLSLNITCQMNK

Binder	percent decrease of binding against unmodified hSP-A [%]
B1	72.6
B2	77.1
B3	71.9
